In assay [1] the target is human CSF-1 receptor full-length ectodomain, domains D1-D5 (hCSF-1R_(D1-D5)) (human) (UniProt P07333). The assay is described as follows: ITC. A general note: Isothermal titration calorimetry measures the heat released or taken up as one component is titrated into another.
Target sequence in this assay (P07333 20-517): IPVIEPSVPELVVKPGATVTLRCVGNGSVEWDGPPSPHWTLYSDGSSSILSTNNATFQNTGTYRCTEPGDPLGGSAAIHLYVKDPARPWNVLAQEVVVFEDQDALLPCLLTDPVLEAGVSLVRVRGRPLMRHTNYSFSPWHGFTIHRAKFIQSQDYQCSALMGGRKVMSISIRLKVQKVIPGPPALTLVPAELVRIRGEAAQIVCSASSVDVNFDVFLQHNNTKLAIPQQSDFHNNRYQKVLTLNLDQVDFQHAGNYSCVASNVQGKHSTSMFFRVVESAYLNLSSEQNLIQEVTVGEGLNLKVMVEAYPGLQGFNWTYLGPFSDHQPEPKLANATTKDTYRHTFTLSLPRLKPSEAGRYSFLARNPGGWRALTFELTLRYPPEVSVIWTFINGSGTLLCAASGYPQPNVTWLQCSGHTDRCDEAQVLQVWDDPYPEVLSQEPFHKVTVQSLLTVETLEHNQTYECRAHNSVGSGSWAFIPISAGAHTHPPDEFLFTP
Assay [2] has as its target mouse CSF-1 receptor full-length ectodomain, domains D1-D5 (mCSF-1R_(D1-D5)) (mouse) (UniProt P09581). The experiment in a line: ITC.
The target in assay [3] is mouse CSF-1 receptor, first three extracellular domains (mCSF-1R_(D1-D3)) (mouse) (UniProt P09581). The assay is described as follows: ITC.
mouse CSF-1 receptor, first three extracellular domains (mCSF-1R_(D1-D3)) (mouse), sequence (P09581 20-298): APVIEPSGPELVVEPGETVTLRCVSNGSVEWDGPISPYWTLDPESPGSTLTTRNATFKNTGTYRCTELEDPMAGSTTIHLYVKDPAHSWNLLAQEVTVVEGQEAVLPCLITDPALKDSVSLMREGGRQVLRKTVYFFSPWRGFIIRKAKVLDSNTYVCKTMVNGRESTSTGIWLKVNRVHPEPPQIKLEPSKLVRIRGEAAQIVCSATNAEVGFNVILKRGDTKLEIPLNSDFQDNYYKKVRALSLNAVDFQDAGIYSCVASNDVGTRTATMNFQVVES
The target in assay [4] is human CSF-1 receptor full-length ectodomain, domains D1-D5 (hCSF-1R_(D1-D5)) (human) (UniProt P07333). The experiment in a line: field-flow fractionation.
Target sequence in this assay (P07333 20-517): as the sequence (P07333 20-517) above
The target in assay [5] is human Colony Stimulating Factor-1 (hCSF-1), residues 1-149 (human). The experiment in a line: field-flow fractionation.
Assay [6] concerns the target human CSF-1 receptor full-length ectodomain, domains D1-D5 (hCSF-1R_(D1-D5)) (human) (UniProt P07333). The experiment in a line: SAXS.

mouse CSF-1 receptor full-length ectodomain, domains D1-D5 (mCSF-1R_(D1-D5)) (mouse), sequence (P09581 20-515): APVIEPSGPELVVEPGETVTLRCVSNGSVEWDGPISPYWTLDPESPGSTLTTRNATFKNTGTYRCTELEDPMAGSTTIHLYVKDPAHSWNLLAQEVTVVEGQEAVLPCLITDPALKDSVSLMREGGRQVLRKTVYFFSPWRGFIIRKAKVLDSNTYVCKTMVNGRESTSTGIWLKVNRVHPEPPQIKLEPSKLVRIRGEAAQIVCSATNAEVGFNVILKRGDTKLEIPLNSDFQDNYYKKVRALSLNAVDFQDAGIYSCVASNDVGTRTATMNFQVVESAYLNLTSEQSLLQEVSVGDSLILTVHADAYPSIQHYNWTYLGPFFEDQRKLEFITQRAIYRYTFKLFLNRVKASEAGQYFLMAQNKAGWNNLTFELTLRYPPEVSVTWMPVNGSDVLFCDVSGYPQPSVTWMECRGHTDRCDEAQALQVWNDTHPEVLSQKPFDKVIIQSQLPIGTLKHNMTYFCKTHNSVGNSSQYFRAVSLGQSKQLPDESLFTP

As a reminder, the Kd is the free concentration of one partner at which half of the binding sites on the other are occupied at equilibrium, for simple one-to-one binding. Low values mean tighter binding, high ones weaker binding. As to “mouse Colony Stimulating Factor-1 (mCSF-1), residues 1-149 (ligand)”, the dissociation constant (Kd) was 2800 nM in assay [1] and 21.7 nM in assay [2]. Besides, the stoichiometry N (CSF-1 dimer per receptor) in assay [1], in assay [2] and in assay [3] was 0.5 throughout.

A word on the stoichiometry N: it is the number of molecules, sites or subunits per partner or assembly. For the substance “human Colony Stimulating Factor-1 (hCSF-1), residues 1-149 (ligand)”, the Kd in assay [1] is 13.6 nM; in assay [2], 66.2 nM. The stoichiometry N (CSF-1 dimer per receptor) in assay [1], in assay [2] and in assay [4] was 0.5 throughout. The stoichiometry N in assay [5] worked out at 2.

“human CSF-1 receptor full-length ectodomain, domains D1-D5 (hCSF-1R_(D1-D5)) (from UniProt P07333 20-517)”: in assay [6], the stoichiometry N was determined as 2.

For the origin of these results see paper PMC3260422.
